We go through 125 sequences from the supplement of paper PMC9112550, “Optimization of the antimicrobial peptide Bac7 by deep mutational scanning” (BMC Biology, 2022).

In this series the test system is Escherichia coli TOP10. Description: shrunken log2 fold change of peptide-encoding DNA abundance (4.5 h post-induction vs induction); higher = less antimicrobial activity (less host growth inhibition). As to conditions: time post-induction: 4.5 h; library: site-saturation at positions 5, 18, 19, 20.
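Note: peptides expressed intracellularly from a pBAD plasmid library in pooled LB shake-flask culture, induced with 0.3% L-arabinose, DNA abundance read by NGS, three biological replicates, DESeq2 with apeglm shrinkage.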

As to RRIRERPPRLPRPRPRPAAIPRP, the “shrunken log2 fold change” value is -0.215.

With RRIRMRPPRLPRPRPRPESIPRP, the “shrunken log2 fold change” value amounted to 0.522.

For the sequence RRIRHRPPRLPRPRPRPGNQPRP, the “shrunken log2 fold change” value came to 0.0401.

RRIRNRPPRLPRPRPRPDEEPRP: the “shrunken log2 fold change” value is 0.509.

RRIRTRPPRLPRPRPRPRLFPRP: the “shrunken log2 fold change” value is 0.207.

Turning to RRIRERPPRLPRPRPRPYLNPRP, the “shrunken log2 fold change” value is -0.326.

RRIRMRPPRLPRPRPRPPKEPRP: the “shrunken log2 fold change” value was -0.0231.

Consider RRIRMRPPRLPRPRPRPMICPRP, for which the “shrunken log2 fold change” value is -0.0412.

RRIRWRPPRLPRPRPRPIINPRP: the “shrunken log2 fold change” value was -0.609.

Consider RRIRERPPRLPRPRPRPGTFPRP, for which the “shrunken log2 fold change” value is -0.378.

Turning to RRIRMRPPRLPRPRPRPTQCPRP, the “shrunken log2 fold change” value came to 0.00706.

Turning to RRIRLRPPRLPRPRPRPINDPRP, the “shrunken log2 fold change” value is -0.35.

Regarding RRIRQRPPRLPRPRPRPNDIPRP, the “shrunken log2 fold change” value is -0.348.

In the case of RRIRNRPPRLPRPRPRPNHKPRP, the “shrunken log2 fold change” value was -0.688.

Turning to RRIRDRPPRLPRPRPRPKWYPRP, the “shrunken log2 fold change” value is -0.0377.

For the sequence RRIRKRPPRLPRPRPRPNMVPRP, the “shrunken log2 fold change” value came to 0.114.

Regarding RRIRTRPPRLPRPRPRPEVHPRP, the “shrunken log2 fold change” value was 0.00869.

As to RRIRMRPPRLPRPRPRPFRQPRP, the “shrunken log2 fold change” value turned out to be 0.0135.

On to RRIRDRPPRLPRPRPRPSRLPRP, for which the “shrunken log2 fold change” value came to 0.0232.

Regarding RRIRPRPPRLPRPRPRPDQAPRP, the “shrunken log2 fold change” value is -0.0505.

For the sequence RRIRNRPPRLPRPRPRPEPQPRP, the “shrunken log2 fold change” value was found to be 1.

With RRIRVRPPRLPRPRPRPDRDPRP, the “shrunken log2 fold change” value was 0.0414.

With RRIRQRPPRLPRPRPRPIQKPRP, the “shrunken log2 fold change” value was -0.0187.

RRIRLRPPRLPRPRPRPGIQPRP: the “shrunken log2 fold change” value was -0.0773.

Turning to RRIRDRPPRLPRPRPRPAVMPRP, the “shrunken log2 fold change” value is -0.00993.

With RRIRKRPPRLPRPRPRPFNRPRP, the “shrunken log2 fold change” value is -0.203.

Turning to RRIRRRPPRLPRPRPRPDRRPRP, the “shrunken log2 fold change” value was 0.108.

RRIRARPPRLPRPRPRPELAPRP: the “shrunken log2 fold change” value was 1.39.

With RRIRRRPPRLPRPRPRPPDSPRP, the “shrunken log2 fold change” value came out at 0.289.

As to RRIRGRPPRLPRPRPRPEMGPRP, the “shrunken log2 fold change” value came out at 1.37.

Turning to RRIRQRPPRLPRPRPRPHCAPRP, the “shrunken log2 fold change” value stood at 0.0396.

RRIRDRPPRLPRPRPRPKRFPRP: the “shrunken log2 fold change” value is -0.017.

As to RRIRGRPPRLPRPRPRPEETPRP, the “shrunken log2 fold change” value is 1.51.

On to RRIRARPPRLPRPRPRPQCLPRP, for which the “shrunken log2 fold change” value is 0.23.

With RRIRMRPPRLPRPRPRPWDVPRP, the “shrunken log2 fold change” value worked out at 0.0498.

For the sequence RRIRHRPPRLPRPRPRPQTQPRP, the “shrunken log2 fold change” value was -0.145.

Regarding RRIRSRPPRLPRPRPRPLKHPRP, the “shrunken log2 fold change” value is -0.39.

Turning to RRIRARPPRLPRPRPRPFAMPRP, the “shrunken log2 fold change” value was determined as 0.236.

Consider RRIRWRPPRLPRPRPRPWYGPRP, for which the “shrunken log2 fold change” value is -0.34.

For RRIRLRPPRLPRPRPRPPYKPRP, the “shrunken log2 fold change” value was -0.292.

Take RRIRFRPPRLPRPRPRPMHNPRP: the “shrunken log2 fold change” value was -0.52.

Consider RRIRDRPPRLPRPRPRPKQTPRP, for which the “shrunken log2 fold change” value was found to be 0.0941.

On to RRIRKRPPRLPRPRPRPVMQPRP, for which the “shrunken log2 fold change” value is 0.041.

Turning to RRIRMRPPRLPRPRPRPKVHPRP, the “shrunken log2 fold change” value is -0.132.

Turning to RRIRFRPPRLPRPRPRPPQGPRP, the “shrunken log2 fold change” value is 0.171.

With RRIRCRPPRLPRPRPRPLFHPRP, the “shrunken log2 fold change” value is -0.429.

With RRIRDRPPRLPRPRPRPIGAPRP, the “shrunken log2 fold change” value was -0.173.

In the case of RRIRARPPRLPRPRPRPKLFPRP, the “shrunken log2 fold change” value was determined as 0.233.

As for RRIRARPPRLPRPRPRPQVNPRP, the “shrunken log2 fold change” value is -0.196.

Take RRIRPRPPRLPRPRPRPQARPRP: the “shrunken log2 fold change” value was 0.208.

Consider RRIRPRPPRLPRPRPRPTYLPRP, for which the “shrunken log2 fold change” value was -0.113.

With RRIRMRPPRLPRPRPRPCMEPRP, the “shrunken log2 fold change” value was found to be 0.112.

In the case of RRIRWRPPRLPRPRPRPSDQPRP, the “shrunken log2 fold change” value was found to be 0.138.

Consider RRIRRRPPRLPRPRPRPYWHPRP, for which the “shrunken log2 fold change” value is -0.484.

As to RRIRIRPPRLPRPRPRPRRYPRP, the “shrunken log2 fold change” value turned out to be 0.111.

In the case of RRIRFRPPRLPRPRPRPWAPPRP, the “shrunken log2 fold change” value was -0.013.

Consider RRIRHRPPRLPRPRPRPLNSPRP, for which the “shrunken log2 fold change” value was -0.883.

RRIRNRPPRLPRPRPRPFCWPRP: the “shrunken log2 fold change” value came out at 0.0104.

Regarding RRIRDRPPRLPRPRPRPIEDPRP, the “shrunken log2 fold change” value was -0.0411.

In the case of RRIRFRPPRLPRPRPRPHSSPRP, the “shrunken log2 fold change” value was -0.194.

In the case of RRIRVRPPRLPRPRPRPSPIPRP, the “shrunken log2 fold change” value was -0.324.

For RRIRNRPPRLPRPRPRPQHSPRP, the “shrunken log2 fold change” value is -0.428.

For the sequence RRIRQRPPRLPRPRPRPHKCPRP, the “shrunken log2 fold change” value is -0.364.

On to RRIRERPPRLPRPRPRPKVSPRP, for which the “shrunken log2 fold change” value is -0.205.

For the sequence RRIRLRPPRLPRPRPRPDIVPRP, the “shrunken log2 fold change” value is -0.0115.

RRIRHRPPRLPRPRPRPESPPRP: the “shrunken log2 fold change” value was found to be 0.0722.

With RRIRRRPPRLPRPRPRPAAFPRP, the “shrunken log2 fold change” value amounted to 0.967.

For RRIRKRPPRLPRPRPRPYASPRP, the “shrunken log2 fold change” value was 0.0496.

With RRIRCRPPRLPRPRPRPVIFPRP, the “shrunken log2 fold change” value was -0.408.

As to RRIRHRPPRLPRPRPRPNWHPRP, the “shrunken log2 fold change” value is -0.242.

For the sequence RRIRMRPPRLPRPRPRPLYCPRP, the “shrunken log2 fold change” value is -0.396.

Turning to RRIRHRPPRLPRPRPRPFCAPRP, the “shrunken log2 fold change” value was 0.076.

On to RRIRMRPPRLPRPRPRPLECPRP, for which the “shrunken log2 fold change” value was -0.0215.

Regarding RRIRLRPPRLPRPRPRPSEAPRP, the “shrunken log2 fold change” value stood at 0.12.

For the sequence RRIRHRPPRLPRPRPRPMASPRP, the “shrunken log2 fold change” value is -0.0864.

With RRIRTRPPRLPRPRPRPRAAPRP, the “shrunken log2 fold change” value was 0.385.

On to RRIRNRPPRLPRPRPRPQLIPRP, for which the “shrunken log2 fold change” value is -0.0323.

On to RRIRERPPRLPRPRPRPRMPPRP, for which the “shrunken log2 fold change” value is -0.0437.

As for RRIRSRPPRLPRPRPRPHAFPRP, the “shrunken log2 fold change” value was -1.44.

Take RRIRPRPPRLPRPRPRPCEDPRP: the “shrunken log2 fold change” value was -0.119.

Take RRIRMRPPRLPRPRPRPTVIPRP: the “shrunken log2 fold change” value was -0.271.

As for RRIRGRPPRLPRPRPRPSDIPRP, the “shrunken log2 fold change” value was determined as 0.399.

Turning to RRIRWRPPRLPRPRPRPWGKPRP, the “shrunken log2 fold change” value came out at 0.0784.

For the sequence RRIRDRPPRLPRPRPRPMCYPRP, the “shrunken log2 fold change” value is -0.0124.

RRIRWRPPRLPRPRPRPWAYPRP: the “shrunken log2 fold change” value was -0.502.

On to RRIRERPPRLPRPRPRPVFAPRP, for which the “shrunken log2 fold change” value turned out to be 0.181.

For RRIRSRPPRLPRPRPRPDQFPRP, the “shrunken log2 fold change” value was -0.167.

As to RRIRHRPPRLPRPRPRPETHPRP, the “shrunken log2 fold change” value was found to be 0.0411.

In the case of RRIRMRPPRLPRPRPRPNHEPRP, the “shrunken log2 fold change” value came out at 0.0645.

Turning to RRIRWRPPRLPRPRPRPGPSPRP, the “shrunken log2 fold change” value came out at 0.223.

With RRIRLRPPRLPRPRPRPCCWPRP, the “shrunken log2 fold change” value is 0.41.

Consider RRIRVRPPRLPRPRPRPDSSPRP, for which the “shrunken log2 fold change” value was -0.0452.

For RRIRKRPPRLPRPRPRPDHIPRP, the “shrunken log2 fold change” value was -0.0249.

RRIRLRPPRLPRPRPRPHINPRP: the “shrunken log2 fold change” value is -0.645.

In the case of RRIRRRPPRLPRPRPRPPKCPRP, the “shrunken log2 fold change” value came to 0.423.

In the case of RRIRKRPPRLPRPRPRPWQCPRP, the “shrunken log2 fold change” value was -0.00136.

On to RRIRGRPPRLPRPRPRPYWWPRP, for which the “shrunken log2 fold change” value was -0.0995.

For the sequence RRIRCRPPRLPRPRPRPFQAPRP, the “shrunken log2 fold change” value was 0.0554.

Consider RRIRHRPPRLPRPRPRPVPYPRP, for which the “shrunken log2 fold change” value is -0.246.

With RRIRPRPPRLPRPRPRPHMFPRP, the “shrunken log2 fold change” value came out at 0.00976.

Consider RRIRPRPPRLPRPRPRPAIVPRP, for which the “shrunken log2 fold change” value is 0.119.

Turning to RRIRQRPPRLPRPRPRPMMTPRP, the “shrunken log2 fold change” value is 0.0172.

For the sequence RRIRLRPPRLPRPRPRPFNAPRP, the “shrunken log2 fold change” value is -0.154.

For the sequence RRIRNRPPRLPRPRPRPLMNPRP, the “shrunken log2 fold change” value is -0.853.

With RRIRQRPPRLPRPRPRPWNCPRP, the “shrunken log2 fold change” value was -0.0444.

Regarding RRIRIRPPRLPRPRPRPWAHPRP, the “shrunken log2 fold change” value was -0.923.

Take RRIRARPPRLPRPRPRPAGNPRP: the “shrunken log2 fold change” value was found to be 0.129.

Turning to RRIRSRPPRLPRPRPRPLHHPRP, the “shrunken log2 fold change” value is -0.465.

Consider RRIRYRPPRLPRPRPRPEPWPRP, for which the “shrunken log2 fold change” value stood at 0.00405.

RRIRPRPPRLPRPRPRPVAWPRP: the “shrunken log2 fold change” value worked out at 0.225.

Regarding RRIRFRPPRLPRPRPRPCPKPRP, the “shrunken log2 fold change” value came to 0.036.

RRIRLRPPRLPRPRPRPALEPRP: the “shrunken log2 fold change” value was found to be 0.155.

RRIRLRPPRLPRPRPRPPGEPRP: the “shrunken log2 fold change” value turned out to be 0.196.

As for RRIRARPPRLPRPRPRPWLFPRP, the “shrunken log2 fold change” value worked out at 0.547.

As to RRIRKRPPRLPRPRPRPMFTPRP, the “shrunken log2 fold change” value was -0.0707.

As for RRIRARPPRLPRPRPRPAEEPRP, the “shrunken log2 fold change” value came out at 0.697.

Turning to RRIRHRPPRLPRPRPRPNWIPRP, the “shrunken log2 fold change” value is -0.19.

In the case of RRIRKRPPRLPRPRPRPIGEPRP, the “shrunken log2 fold change” value was -0.0126.

For the sequence RRIRARPPRLPRPRPRPYADPRP, the “shrunken log2 fold change” value is 0.103.

RRIRMRPPRLPRPRPRPVRPPRP: the “shrunken log2 fold change” value worked out at 1.76.

As for RRIRSRPPRLPRPRPRPECAPRP, the “shrunken log2 fold change” value stood at 0.784.

Take RRIRRRPPRLPRPRPRPEWLPRP: the “shrunken log2 fold change” value was determined as 0.794.

Consider RRIRSRPPRLPRPRPRPHFIPRP, for which the “shrunken log2 fold change” value is -0.344.

On to RRIRVRPPRLPRPRPRPRDSPRP, for which the “shrunken log2 fold change” value was -0.188.

On to RRIRERPPRLPRPRPRPGGAPRP, for which the “shrunken log2 fold change” value came to 0.276.
